The subject of the data set is MS2 coat protein. The data set is described as follows: apparent KD of MS2 coat protein; designed switch direction (-1 OFF switch, 1 ON switch): -1; higher = weaker reporter binding. Put shortly:
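An oligonucleotide input, 200 uM small-molecule ligand, or no input was present during titration of SNAP-549-labelled MS2 coat protein, which was doubled from 0.7 or 1.5 nM to 3 µM. Designed RNA switches had been transcribed on Illumina chips by stalled E. coli RNA polymerase. Apparent KD per design is the median over clusters of curves fitted to normalised cluster fluorescence.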

Where [1] appears, read: Eterna round: R95, input ligand: microRNA oligo, concentration not stated.
[2] abbreviates: input ligand: microRNA oligo, concentration not stated.

For “UUUUCACAUGAGGAUCACCCAUGUGAGGAUAUGGUUUCGCUGGCCGUAGCCAGUGGAACCAGAAGGCGCAUGAU [Mat - Exclusion 1 - JL Mod - D6] (Eterna round: R97, puzzle: Exclusion 1)”, the “apparent KD of MS2 coat protein” value by setting is: (input ligand: FMN 200 uM) 35.3 nM; (input ligand: none) 30.2 nM.

Turning to “UUUUCGUGAGGAUAUCAGUAGUAAAUAAAUAAAAUUACUACUGAGAAGGCACAUGAGGAUCACCCAUGUUCCUU [salish99_ex3_r3_094] (puzzle: Exclusion 4)”, the “apparent KD of MS2 coat protein” value under setting [1] stood at 13.6 nM.

Consider “UUUUCUUUUGUGAGGAUAUACUUCUUUUUCUUUUUGUAGAAGGCACAUGAGGAUCACCCAUGUUUUCUUUUCUC [JR_BME4_Sub028] (puzzle: Brourd's mod of Exclusion 4)”, for which, under setting [1], the “apparent KD of MS2 coat protein” value worked out at 13.7 nM.

Take “UUUUGAAAGUGAGGAUAUGACAUGAGGAUCACCCAUGUAAAGGGAGUUGACUAUAUAGAAAGAUAUCAGAAGGCACAAAUGUUU [JR_ExcNG2_Sub002] (Eterna round: R96, puzzle: Exclusion NG 2)”: the “apparent KD of MS2 coat protein” value (input ligand: FMN 200 uM) worked out at 839 nM, the “apparent KD of MS2 coat protein” value under setting [2] is 237 nM and the “apparent KD of MS2 coat protein” value (input ligand: none) amounted to 321 nM.

Consider “UUUUGACAAGCGAGAUCCUACAUGAGGAUCACCCAUGUAGACCAUGGUUUCCAUGGUCUUUUUGCUCGUCUUGUGUG [jl TITIN mod 5] (Eterna round: R97, puzzle: Sensor, turn-off variant 1)”, for which the “apparent KD of MS2 coat protein” value (input ligand: FMN 200 uM) came out at 23.2 nM and the “apparent KD of MS2 coat protein” value (input ligand: none) was found to be 23.4 nM.

As to “UUUUGACAUGAGGAUCACCCAUGUUAGGAUAUCUUAAGGGAUGGAACAGGGUCGGAACAGAGAAGGAGCGUGGG [EX1 B.26] (Eterna round: R97, puzzle: Exclusion 1)”, the “apparent KD of MS2 coat protein” value is, setting by setting: (input ligand: FMN 200 uM) 82.4 nM; (input ligand: none) 47.9 nM.

For “UUUUGCAAGCAAAUUGUCAACAUGAGGAUCACCCAUGUGGAAGCCUUGGAGGGUGGGACCGUAAGUAGAGCUCGUUU [Eternabot (L2) Solution 34] (Eterna round: R97, puzzle: Sensor, turn-off variant 1)”, the “apparent KD of MS2 coat protein” value worked out at 38.1 nM (input ligand: FMN 200 uM) and 39.2 nM (input ligand: none).

Consider “UUUUGCACGCUGCGGUCCUACAUGAGGAUCACCCAUGUGGUCUGGUGGCGUGGGUCGCCGGACUUGGCUCGUCUUGU [salish99_S_TOV1_R5_036] (Eterna round: R97, puzzle: Sensor, turn-off variant 1)”, for which the “apparent KD of MS2 coat protein” value by setting is: (input ligand: FMN 200 uM) 19 nM; (input ligand: none) 19.1 nM.

With “UUUUGGCAGGCUAUUAUUAACAUGAGGAUCACCCAUGUGCAUCCAAAAUUACUUUUAGAUCUUGCUCGUCUUAUAUA [JR_STOV1_Sub086] (Eterna round: R97, puzzle: Sensor, turn-off variant 1)”, the “apparent KD of MS2 coat protein” value stood at 379 nM (input ligand: FMN 200 uM) and 684 nM (input ligand: none).

For the sequence “UUUUUAAAUGAAGGAUAUACUUAACAUGAGGAUCACCCAUGUGGUGUUGUGAGUGAGUGAGUUUAGUAGAAGGUCAAUGAUUUU [JMF's solution 65] (Eterna round: R96, puzzle: Exclusion NG 2)”, the “apparent KD of MS2 coat protein” value reads like this: (input ligand: FMN 200 uM) 1250 nM; under setting [2], 196 nM; (input ligand: none) 211 nM.

Regarding “UUUUUACAUGAGGAUCACCCAUGUCAGGAUAUCCUUAUAUUUUAUUAUUUUAUUUUUUGGAGAAGGGACUAUUA [My solution] (Eterna round: R96, puzzle: Exclusion 1)”, the “apparent KD of MS2 coat protein” value (input ligand: FMN 200 uM) came out at 362 nM, the “apparent KD of MS2 coat protein” value under setting [2] worked out at 282 nM and the “apparent KD of MS2 coat protein” value (input ligand: none) was 322 nM.

For “UUUUUACAUGAGGAUCACCCAUGUCAGGAUAUCCUUAUAUUUUAUUAUUUUAUUUUUUGGAGAAGGGACUAUUA [My solution] (puzzle: Exclusion 1)”, under setting [1], the “apparent KD of MS2 coat protein” value was found to be 297 nM.

As for “UUUUUACAUGAGGAUCACCCAUGUCAGGAUAUUCUUAUAUUUUAUUAUUUUAUUUUUUGAAGAAGGGACUAUUA [My solution] (puzzle: Exclusion 1)”, under setting [1], the “apparent KD of MS2 coat protein” value worked out at 99.4 nM.

For the origin of these results see the supplement of paper PMC9170038.
